Where no end group is shown, it is not given here.
Assays:
[1] = Saturation curves for adsorption of active agent onto FDKP microparticles at pH 5.0; assay type: physicochemical; conditions: pH 5.0, constant 5 mg/mL FDKP microparticles (FIGS. 7A-7D)
Experimental: When the hydration water is displaced by adsorption of the active agent, its structure relaxes and produces a net decrease in the ultrasonic velocity through the sample. […] These studies were conducted at pH 5.0 where optimal adsorption of the active agent to microparticles is observed.

[2] = Adsorption onto FDKP microparticles at pH 5.0 with increasing salt (sodium chloride); assay type: physicochemical; conditions: pH 5.0, 5 mg/mL FDKP microparticles, sodium chloride (FIGS. 8A-8D)
Experimental: Each sample contained a different quantity of salt (sodium chloride), as indicated under each bar in FIGS. 8A-8D (units are mM). […] After a brief incubation, unbound active agent was removed by filtration and the particles with adsorbed active agent were redissolved. The amount of active agent and particle recovered was quantitated by HPLC, and expressed as a mass ratio (% loading).
This can be interpreted as evidence that the salt competed with the active agent for interaction with the particle surface. As the salt concentration was increased, it competed strongly and effectively for surface binding sites, and essentially displaced the active agent from the particle surfaces. It is also speculated, that decrease binding of the active agent to microparticle may be attributable to Debye shielding.

[3] = Resuspension of dried active agent-coated FDKP microparticles in acid solution or water (filtration, HPLC); assay type: physicochemical; conditions: for Resuspended in Acidic solution, integrated HPLC peak area / Resuspended in water, integrated HPLC peak area: filtrate; for Resuspended in Acidic solution, integrated HPLC peak area / Redissolved after filtering away acidic solution, integrated HPLC peak area: final pH about 2.0, 215 nm; for Resuspended in water, integrated HPLC peak area / Redissolved after filtering away water, integrated HPLC peak area: final pH about 4.5, 215 nm; for Redissolved after filtering away acidic solution, integrated HPLC peak area / Redissolved after filtering away water, integrated HPLC peak area: retained particles dissolved; for Active Agent Standard solution, integrated HPLC peak area: 215 nm
Experimental: The solvent was filtered from these suspensions and the retained particles were dissolved and collected. The amount of active agent in all of these samples was quantitated by HPLC.
For each of the lots, the active agent was released from the particles in the acidic solution. Therefore, by protonating the surfaces of the microcrystals, the active agent desorbs from the crystal surfaces.

[4] = at the concentrations used; cited from earlier work
[5] = Insulin binding to FDKP particles at different pH (unbound insulin in supernatant by HPLC); assay type: physicochemical
[6] = pH dependence of adsorption onto FDKP microparticles with excess protein (retentate mass ratio by HPLC); assay type: physicochemical; conditions: for type of monolayer formed: 5 mg/mL FDKP, 2 mg/mL protein
Experimental: (An excess of protein, as referred to herein, is that amount over what is believed to be necessary to form a monolayer covering the accessible surface of the FDKP microparticle). After incubation, non-adsorbed protein was removed by filtration. The solids retained on the filter (retentate) were dissolved and the amounts of FDKP microparticles and protein retained on the filter were quantitated by HPLC. The protein/particle mass ratio was determined from this quantitation.
Insulin was adsorbed (loaded) onto FDKP microparticles in a pH-controlled process by mixing an aqueous suspension of FDKP microparticles with an aqueous solution of insulin. […] The solid particles with adsorbed insulin were recovered from the filter (retentate), dissolved and collected. The amounts of insulin and dissolved FDKP microparticles were quantitated by HPLC. The amount of adsorbed insulin was calculated as a fraction of the total mass of retentate.

[7] = Ultrasonic glacial acetic acid titration of FDKP particles + insulin; assay type: physicochemical; conditions: 10 mg/mL FDKP, 1 mg/mL insulin; reduced interaction below about pH 2.9
Experimental: This suspension was introduced into an ultrasonic spectrometer. While stirring gently, glacial acetic acid was gradually added in 5 μL aliquots to lower the pH. At each step in the titration ultrasonic data was collected.
The change in ultrasonic velocity was related (proportional) to the amount of surface area (hydration water) of the particles and/or macromolecules in the sample. […] This additional surface area was from free insulin in the suspension.

Substance	adsorption as active agent concentration is increased [1]	effect of increasing ionic strength on adsorption [2]	Resuspended in Acidic solution, integrated HPLC peak area [3] [mAU * sec]	Resuspended in water, integrated HPLC peak area [3] [mAU * sec]	Redissolved after filtering away acidic solution, integrated HPLC peak area [3] [mAU * sec]	Redissolved after filtering away water, integrated HPLC peak area [3] [mAU * sec]	Active Agent Standard solution, integrated HPLC peak area [3] [mAU * sec]	further results
PTH: parathyroid hormone	reached saturation	reduced the extent of adsorption	–	–	–	–	–	–
Insulin Aspart: a fast-acting type of insulin	–	–	893	0	29	982	1099	–
GLP-1: glucagon-like peptide 1	reached saturation	–	–	–	–	–	–	self association [4]: does not self associate
ghrelin: ghrelin, active agent adsorbed onto FDKP microparticles (GSSFLSPEHQRVQQRKESKKPPAKLQPR; ends and bridges not checked; UniProt Q9UBU3 24-51, looked up)	–	reduced the extent of adsorption	–	–	–	–	–	–
insulin: protein active agent adsorbed onto FDKP microparticles	–	–	980	4	49	936	1103	pH at which substantially complete binding is achieved ([5]; insulin on FDKP particles): ≥ 4.2; insulin adsorbed from solution onto the particles ([5]; pH 3.6): approximately 75%; pH dependence of adsorption ([6]; 5 mg/mL FDKP particles at varying pH, excess active agent (FIGS. 4A-D)): increased as a function of pH; type of monolayer formed ([6]; pH 3.5 through pH 4.5): non-continuous monolayers; type of monolayer formed ([6]; pH 5.0): continuous monolayer; pH of association of protein with FDKP microparticles [7]: greater than 2.9

Reference: patent publication US11013692B2, “Method of drug formulation based on increasing the affinity of crystalline microparticle surfaces for active agents” (MannKind Corporation, priority 2005, dated 2021)
